Source: paper PMC11965310

Key:
VHH H3-2 [1] = test: crystal structure; 280 μM H3-2 with 1 mM tau-Cter peptide; 23% PEG-MME 2000, 0.1 M potassium acetate; 1.8 Å
VHH H3-2 [2] = test: SEC; Superdex 75 Increase 10/300 GL, PBS, 16 °C; 20 µM VHH without or with 40 µM tau-Cter peptide

B1: VHH H3-2 (VHH)
VHH: EVQLQASGGGFVQPGGSLRLSCAASGYTSGDEIMGWFRQAPGKEREFVSAISWQSGTSTYYADSVKGRFTISRDNSKNTVYLQMNSLRAEDTATYYCAPMTLAETYYEWLISGYWGQGTQVTVSS
VHH H3-2 [1]
  stoichiometry N: 2
VHH H3-2 [2]
  stoichiometry N: 2
